Data on 116 sequences can be found in the supplement of paper PMC10724198.

± gives the standard deviation of the averaged measurements.
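Note: PSI is a weighted mean of sequencing reads over stability bins, variants kept only with over 10 reads, mCherry proximal and sfGFP distal, peptide attached via GGGS linker.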

This data set concerns Saccharomyces cerevisiae. As to the kind of experiment: protein stability index of tFT-peptide fusion (C-terminal peptide) (PSI (0-1 scale)); higher = more stable (slower turnover). The following applies: genetic background: wild type; temperature: 30 C.
IIQTTKPTRNIK yielded a protein stability index of 0.67 ± 0.022.

IIRINSKMGSRK had a protein stability index of 0.725 ± 0.0078.

Turning to IKIILLEKQGSK, the protein stability index is 0.697 ± 0.033.

On to IKKANRKTKPMK, for which the protein stability index amounted to 0.712 ± 0.078.

Regarding IKKKVKNQKENQ, the protein stability index worked out at 0.726 ± 0.013.

For the sequence IKKNRYYKRIII, the protein stability index came to 0.657 ± 0.028.

Regarding IKNEKKKEIELN, the protein stability index was determined as 0.639 ± 0.0065.

The sequence IKNEKKNKRKKK returned a protein stability index of 0.71337 ± 0.00014.

Take IKPTRKKTISTR: the protein stability index worked out at 0.715 ± 0.095.

Consider IKRRKRNRKRGP, for which the protein stability index was determined as 0.675 ± 0.041.

Sequence IKTCANGPPHSM gave a protein stability index of 0.64 ± 0.06.

The sequence ILCASDLNRPCL registered a protein stability index of 0.697 ± 0.04.

Take ILFVTASSFSPP: the protein stability index is 0.67 ± 0.045.

For the sequence ILPCLSVRFFAP, the protein stability index was 0.658 ± 0.0068.

ILPYTDTVCYRY registered a protein stability index of 0.699 ± 0.047.

In turn, ILRLVGRGLVLL returned a protein stability index of 0.639 ± 0.013.

ILSDCWDQTIIE came in with a protein stability index of 0.671 ± 0.018.

As for ILSFPYSQYFMS, the protein stability index is 0.7242 ± 0.0052.

ILSRTEGHCLII registered a protein stability index of 0.739 ± 0.074.

Regarding ILVGPTDFLPLE, the protein stability index turned out to be 0.651 ± 0.016.

With ILVSRQGRGMRS, the protein stability index worked out at 0.643 ± 0.013.

For ILVSVLRFVRNR, the protein stability index was found to be 0.691 ± 0.029.

Sequence IMGGGGEGGINC yielded a protein stability index of 0.698 ± 0.019.

Turning to IMRLCSSNRICG, the protein stability index turned out to be 0.678 ± 0.027.

With INGSTENKSVKT, the protein stability index was found to be 0.644 ± 0.012.

INKNKKKEKLTK: the protein stability index worked out at 0.697 ± 0.015.

Sequence INVKRSNAQRKG returned a protein stability index of 0.754 ± 0.058.

On to INVNNENLRGTE, for which the protein stability index is 0.663 ± 0.072.

IPDPSPFTCPNV showed a protein stability index of 0.557 ± 0.02.

In the case of IPGVPPPRFSIR, the protein stability index turned out to be 0.704 ± 0.034.

As for IPLCRVAGPKLK, the protein stability index came out at 0.591 ± 0.048.

As to IPLPMLLHLPRA, the protein stability index amounted to 0.684 ± 0.019.

On to IPRHLGTRVVPI, for which the protein stability index was 0.682 ± 0.072.

In turn, IPSLSLPLQTGS came in with a protein stability index of 0.64 ± 0.055.

IQAERKKSYKDT registered a protein stability index of 0.616 ± 0.075.

As to IQSRGQEKKKRK, the protein stability index came out at 0.673 ± 0.0075.

The sequence IRGWVRCRVARG had a protein stability index of 0.683 ± 0.021.

Consider IRILDARYLSIS, for which the protein stability index was found to be 0.62 ± 0.12.

With IRKKIRKKTIYK, the protein stability index amounted to 0.798 ± 0.034.

Take IRKKNKEKIKNQ: the protein stability index came to 0.691 ± 0.25.

Consider IRKPRRHRTVET, for which the protein stability index is 0.73 ± 0.057.

For IRNSDNNKNHPR, the protein stability index was found to be 0.693 ± 0.042.

For IRPSQASSLRKT, the protein stability index turned out to be 0.634 ± 0.066.

Turning to IRQPIPTKVHRL, the protein stability index is 0.744 ± 0.045.

Consider IRVAWTPRSYDL, for which the protein stability index was 0.664 ± 0.038.

As for ISALYVPGILSK, the protein stability index was determined as 0.6 ± 0.018.

Consider ISCSDNMLLLFD, for which the protein stability index was 0.697 ± 0.01.

For ISCTASRCRLTR, the protein stability index was determined as 0.744 ± 0.025.

ISFGSVFSGFFH displayed a protein stability index of 0.7354 ± 0.0014.

ISFTDPSMGTLG came in with a protein stability index of 0.608 ± 0.11.

On to ISGEISTLLKTR, for which the protein stability index stood at 0.71 ± 0.081.

In turn, ISLGGNWHRVVT yielded a protein stability index of 0.649 ± 0.019.

ISSGRRFRAGAE: the protein stability index was determined as 0.703 ± 0.046.

In turn, ISSIRKNSKREE returned a protein stability index of 0.755 ± 0.031.

As to ISVRAVDFGIAG, the protein stability index turned out to be 0.68 ± 0.033.

For ITAATFCRRPAS, the protein stability index came out at 0.659 ± 0.12.

In the case of ITGSRVQVYIGR, the protein stability index was 0.693 ± 0.021.

ITKELKNIKQED displayed a protein stability index of 0.675 ± 0.0088.

On to ITLSCFPRPFPL, for which the protein stability index was found to be 0.691 ± 0.02.

As to ITRAKGKPEISL, the protein stability index came to 0.639 ± 0.12.

In turn, IVAWQGRNLTPL registered a protein stability index of 0.655 ± 0.12.

Sequence IVGAVMMGGRTM came in with a protein stability index of 0.68 ± 0.013.

IVGEDRRRTAFR returned a protein stability index of 0.678 ± 0.026.

In turn, IVMGVGCYTGRP returned a protein stability index of 0.74 ± 0.036.

As for IWAKLGFRLQYS, the protein stability index was 0.701 ± 0.13.

In turn, IWGGGKGRAGRH gave a protein stability index of 0.651 ± 0.041.

In turn, IYCGDRGITGGV came in with a protein stability index of 0.683 ± 0.019.

Consider IYCWGVSFGWLR, for which the protein stability index was determined as 0.68 ± 0.021.

As for IYHCRKSYKTRQ, the protein stability index worked out at 0.7205 ± 0.0042.

As to IYNGMLREEKSL, the protein stability index is 0.728 ± 0.017.

KAGVWLWGGGGG displayed a protein stability index of 0.678 ± 0.069.

In turn, KALGLRDHAILD registered a protein stability index of 0.6583 ± 0.004.

Take KALKNEYRYRAF: the protein stability index stood at 0.645 ± 0.073.

Regarding KAPPDERGTGAQ, the protein stability index is 0.6273 ± 0.0018.

KARLRQRKSTSK yielded a protein stability index of 0.728 ± 0.0084.

On to KAVSRQSEATPV, for which the protein stability index was 0.76 ± 0.093.

Sequence KAYGSCRSLAWF came in with a protein stability index of 0.712 ± 0.061.

With KCKRGYSAVREL, the protein stability index was 0.936 ± 0.09.

Sequence KCSKGSQGECHV returned a protein stability index of 0.671 ± 0.05.

KDGSKMQCNIKK: the protein stability index amounted to 0.6763 ± 0.0014.

With KEDLGGMVSGGR, the protein stability index was 0.644 ± 0.009.

KEEIRNKIKTIK returned a protein stability index of 0.6809 ± 0.0063.

With KEKKGNKTKKQN, the protein stability index is 0.657 ± 0.017.

KEKRLKATTQYE yielded a protein stability index of 0.699 ± 0.015.

For KELENLHDNEGN, the protein stability index is 0.616 ± 0.019.

Turning to KELRYKKDRKKK, the protein stability index was determined as 0.689 ± 0.026.

Take KENYGIKTKDRK: the protein stability index was 0.696 ± 0.075.

Regarding KEQKIMSKKIEK, the protein stability index came to 0.68978 ± 0.00026.

The sequence KEREGGSMNGGG yielded a protein stability index of 0.692 ± 0.064.

The sequence KEWLSRDIEDAS registered a protein stability index of 0.665 ± 0.027.

KFRFPVDLIFET showed a protein stability index of 0.73 ± 0.015.

Take KGDMSCWPSRPI: the protein stability index turned out to be 0.7137 ± 0.00075.

On to KGGWGMRGVRGG, for which the protein stability index was found to be 0.672 ± 0.0046.

For the sequence KGKFTRGGMAGT, the protein stability index is 0.668 ± 0.049.

Regarding KGKKRKNEKNKR, the protein stability index came out at 0.691 ± 0.0089.

For KGLLSITLRNLD, the protein stability index was 0.63 ± 0.049.

Sequence KGMVEESIIKRA registered a protein stability index of 0.62084 ± 0.00038.

For KGRKKKKRKEQE, the protein stability index worked out at 0.693 ± 0.016.

For the sequence KGRRVSTGRRRR, the protein stability index was found to be 0.712 ± 0.004.

KGRWEVRGEGRG yielded a protein stability index of 0.64 ± 0.03.

KGSWCSPRGELR registered a protein stability index of 0.6552 ± 0.0059.

Regarding KHKGRSKETHDV, the protein stability index came out at 0.616 ± 0.09.

As for KHLIHSRLGICG, the protein stability index is 0.6634 ± 0.0059.

In turn, KHRKSKEIRTAR returned a protein stability index of 0.6844 ± 0.0065.

Sequence KIGEVNKKQSII came in with a protein stability index of 0.743 ± 0.064.

KIIKKKKKNKEH registered a protein stability index of 0.596 ± 0.055.

In turn, KIIRKNILRNEY gave a protein stability index of 0.658 ± 0.018.

In turn, KIKNHQRQIMNT showed a protein stability index of 0.494 ± 0.092.

For KIKTTKKIKKKK, the protein stability index is 0.681 ± 0.032.

For the sequence KINKNMDYKYQK, the protein stability index was 0.673 ± 0.095.

Regarding KINPQKTEWARR, the protein stability index amounted to 0.689 ± 0.024.

KKDIYRVGLKVR came in with a protein stability index of 0.618 ± 0.011.

Sequence KKDMCRSSFPDC had a protein stability index of 0.686 ± 0.007.

Regarding KKEIGGSNWNKK, the protein stability index worked out at 0.632 ± 0.09.

Sequence KKEKKKTKANKT displayed a protein stability index of 0.679 ± 0.031.

On to KKEQPKEKQGNK, for which the protein stability index came out at 0.732 ± 0.053.
